Assays:
[1] = target: cyanase from the thermophilic fungus Thermomyces lanuginosus (Tl-Cyn) (Thermomyces lanuginosus); assay: crystal structure; sitting-drop vapour diffusion at 20 °C, protein 13 mg/mL; reservoir 2% Tacsimate (pH 8.0), 0.1 M Tris (pH 8.5), 16% PEG 3,350; malonate and formate bound in the active sites; 2.2 Å
N#CO = assay: purified protein; conditions: apparent Km; 0.05 to 3.0 mM potassium cyanate; bicarbonate-dependent
From the text: cyanase activity (ammonium release), Lineweaver-Burk on Tl-Cyn

| Substance | stoichiometry N [1] | Km (N#CO) |
| --- | --- | --- |
| cyanase from the thermophilic fungus Thermomyces lanuginosus (Tl-Cyn) (enzyme) | 10 |  |
| Tl-Cyn (Thermomyces lanuginosus) |  | 360 ± 40 µM |

Source: PMC7801690, “Crystal structure of a thermophilic fungal cyanase and its implications on the catalytic mechanism for bioremediation” (Scientific Reports, 2021)
